Test results published in PMC11856044.

Molecular target: Bombyx mori ribosomal protein RPL12 (Bombyx mori (endogenous in BmN))
Experiment: Western blot of total cell proteins; total proteins of BmN cells (mock, control siRNA, BmRPL12 siRNA), anti-RPL12 polyclonal antibody; monomer and dimer bands

## Bombyx mori ribosomal protein RPL12 (natural protein)
  stoichiometry N: 2
